Laboratory results taken from PMC6505963.

B1: Holliday junction (HJ) (structured_DNA)
DNA 1: CTAGAACAGCATGTCCTAGCAAGCCAGAATTC
DNA 2: GAATTCTGGCTTGCTAGGACATCTTTGCCCAC
DNA 3: GTGGGCAAAGATGTCCTAGCAATGTAATCGTC
DNA 4: GACGATTACATTGCTAGGACATGCTGTTCTAG
B2: forked duplex (dsDNA)
DNA 1: TTTTTTTTTTAGGGCATGCACTAC
DNA 2: GTAGTGCATGCCCTAATTTTTTTT

Tests used:
GST-BLM RQC = GST-BLM RQC (human, UniProt P54132 1068-1209); assay: EMSA; 1, 5, 10 uM protein; FP: 10 mM Tris-HCl pH 7.5, 25 mM NaCl, 1 mM DTT, 100 pM DNA, 25 C; EMSA: 10 mM Tris-HCl pH 8.0, 2 mM DTT, 1 mM EDTA, 20% glycerol, 0.2 uM DNA, 4 C, 30 min, 7.5%
GST-BLM RQC K1125A = GST-BLM RQC K1125A (human, UniProt P54132 1068-1209, K1125A); assay: EMSA; FP: 10 mM Tris-HCl pH 7.5, 25 mM NaCl, 1 mM DTT, 100 pM DNA, 25 C; EMSA: 10 mM Tris-HCl pH 8.0, 2 mM DTT, 1 mM EDTA, 20% glycerol, 0.2 uM DNA, 4 C, 30 min, 7.5%
GST-BLM RQC R1139A = GST-BLM RQC R1139A (human, UniProt P54132 1068-1209, R1139A); assay: as above
GST-BLM RQC S1121A = GST-BLM RQC S1121A (human, UniProt P54132 1068-1209, S1121A); assay: as above
BLM RQC (GST-free) = BLM RQC (GST-free) (human, UniProt P54132 1068-1209); assay: fluorescence polarization; FP: 10 mM Tris-HCl pH 7.5, 25 mM NaCl, 1 mM DTT, 100 pM DNA, 25 C; EMSA: 10 mM Tris-HCl pH 8.0, 2 mM DTT, 1 mM EDTA, 20% glycerol, 0.2 uM DNA, 4 C, 30 min, 7.5%
Chain of BLM RQC (GST-free) (P54132 1068-1209): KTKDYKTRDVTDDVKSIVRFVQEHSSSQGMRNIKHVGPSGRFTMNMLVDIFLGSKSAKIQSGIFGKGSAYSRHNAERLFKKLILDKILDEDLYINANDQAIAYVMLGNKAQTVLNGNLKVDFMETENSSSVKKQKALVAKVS

Chain of GST-BLM RQC R1139A (P54132 1068-1209 R1139A): as the sequence (P54132 1068-1209) above, with R72A counted along it
Chain of GST-BLM RQC S1121A (P54132 1068-1209 S1121A): as the sequence (P54132 1068-1209) above, with S54A counted along it
Chain of GST-BLM RQC (P54132 1068-1209): as the sequence (P54132 1068-1209) above
Chain of GST-BLM RQC K1125A (P54132 1068-1209 K1125A): as the sequence (P54132 1068-1209) above, with K58A counted along it

Binder	binding result (GST-BLM RQC)	binding signal (GST-BLM RQC K1125A)	binding signal (GST-BLM RQC R1139A)	binding signal (GST-BLM RQC S1121A)	Kd (BLM RQC (GST-free)) [nM]
B1	binds	~50 % loss of binding vs wild type	~70 % loss of binding vs wild type	~10 % loss of binding vs wild type	
B2					~700
